The assay deals with SARS-CoV-2 spike on pseudotyped virus particles (Wuhan-Hu-1 strain) (SARS-CoV-2) (UniProt P0DTC2). In words: cell-based or functional assay.

As for homotrimeric Nb20, the IC50, pseudovirus luciferase assay is 3 pM.

Turning to homotrimeric Nb21, the IC50, pseudovirus luciferase assay is 1.3 pM.
